Laboratory results as given in the supplement of paper PMC11246515.
± gives the standard deviation of the averaged measurements.

Assay: total protein half-life in vivo (active degradation + dilution); higher = more stable protein
[1] = E. coli NCM3722 delta-clpP delta-lon delta-hslV, growth: N-lim chemostat, doubling time 6 h
[2] = E. coli NCM3722 delta-clpP, growth: N-lim chemostat, doubling time 6 h
[3] = E. coli NCM3722 delta-hslV, growth: N-lim chemostat, doubling time 6 h
[4] = E. coli NCM3722 delta-lon, growth: N-lim chemostat, doubling time 6 h
[5] = E. coli NCM3722 delta-smpB, growth: N-lim chemostat, doubling time 6 h
[6] = wild type E. coli NCM3722, growth: C-lim chemostat, doubling time 3 h
[7] = wild type E. coli NCM3722, growth: C-lim chemostat, doubling time 12 h
[8] = wild type E. coli NCM3722, growth: N-lim chemostat, doubling time 12 h
[9] = wild type E. coli NCM3722, growth: P-lim chemostat, doubling time 6 h
[10] = wild type E. coli NCM3722, growth: P-lim chemostat, doubling time 12 h
[11] = wild type E. coli NCM3722, growth: C-lim chemostat, doubling time 6 h
[12] = wild type E. coli NCM3722, growth: N-lim chemostat, doubling time 6 h

Sequence | total protein half-life in vivo [1] [h] | total protein half-life in vivo [2] [h] | total protein half-life in vivo [3] [h] | total protein half-life in vivo [4] [h] | total protein half-life in vivo [5] [h] | total protein half-life in vivo [6] [h] | total protein half-life in vivo [7] [h] | total protein half-life in vivo [8] [h] | total protein half-life in vivo [9] [h] | total protein half-life in vivo [10] [h] | total protein half-life in vivo [11] [h] | total protein half-life in vivo [12] [h]
MDLTQLEMFNAVAEAGSITQAAAKVHRVPSNLTTRLRQLETELGVDLFIRENQRLRLSPAGHNFLRYSQQILALVDEARSVVAGDEPQGLFSLGSLESTAAVRIPATLAEFNRRYPKIQFSLSTGPSGTMLDGVLEGKLNAAFIDGPINHTAIDGIPVYREELMIVTPQGYAPVTRASQVNGSNIYAFRANCSYRRHFESWFHADGAAPGTIHEMESYHGMLACVIAGAGIALIPRSMLESMPGHHQVEAWPLAEQWRWLTTWLVWRRGAKTRPLEAFIQLLDVPDSARQGYQ | > 8 | 5.2 | 4.72 | 4.66 | 4.76 | 2.76 | 8.27 | 12.1 ± 2.1 | 6.44 ± 1 | 10.7 ± 2.1 |  | 
MDNLDVICIGAAIVDIPLQPVSKNIFDVDSYPLERIAMTTGGDAINEATIISRLGHRTALMSRIGKDAAGQFILDHCRKENIDIQSLKQDVSIDTSINVGLVTEDGERTFVTNRNGSLWKLNIDDVDFARFSQAKLLSLASIFNSPLLDGKALTEIFTQAKARQMIICADMIKPRLNETLDDICEALSYVDYLFPNFAEAKLLTGKETLDEIADCFLACGVKTVVIKTGKDGCFIKRGDMTMKVPAVAGITAIDTIGAGDNFASGFIAALLEGKNLRECARFANATAAISVLSVGATTGVKNRKLVEQLLEEYEG | 4.78 | 4.22 | 5.06 ± 0.82 | 4.44 ± 0.44 | 4.11 ± 0.23 | 3.18 ± 0.49 | 10.1 ± 0.27 | 7.58 ± 0.17 | 3.97 | 7.77 ± 1.9 | 5.08 ± 0.33 | 4.39 ± 0.065
MDNVELSPATRWGMIATGLLQGLVCYLLIAWLSGKNHSWIVYGVPATVAFSSVLLFSVISFKQKRLWGWLALVFIATLGMSGWLKWQTDGMNPWRAEKALWDFGCYLLLMAMLLLPWIQQSLRIRNDSSRYRYFYQSVWHNVLILLVIFLANGLTWLVLLLWSELFKLVGITFFNTLFFATDWFIYLTLGLVTALAVILARTQSRLIDSIQKLFTLIATGLLPLVSLLTLMFIITLPFTGLSAISRHISAAGLLLTLAFLQLILMAIVRDPQKASLPWTGPLRCLIKTALLVAPLYVFVAAWALWLRVAQYGWTVDRLQGVLAVLVLLVWSLGYFVSIVWRKGQNPVVLQGKVNLAVSLLVLVILVLLNSPVLDSMRISVNSHMARYQSGKNTSDQVTIYMLEQSGRYGRAALESLKSDAGFMKDPKRARDLLMALDGEQHLQQQVSEKVLADNVLIAPGSVKPDATFWSALIQDRYNVMTCIEKDACVLVEQDLNSDGQAERILFAFNDDRVIVYGFDSDRKEWDALDMSLLPNEITKEKLLTAAKDGKLGTKPKAWRDLVVDGERLNVNLNE | 4.79 | 3.51 | 3.21 | 3.27 | 2.97 ± 0.52 | 3.78 | 6.23 |  |  | 3.39 | 3.86 ± 0.18 | 
MDQALLDGGYRCYTGEKIDVYFNTAICQHSGNCVRGNGKLFNLKRKPWIMPDEVDVATVVKVIDTCPSGALKYRHK [P0AF59] | 5.57 ± 0.28 | 5.03 | 5.21 ± 0.78 | 6.02 ± 0.5 | 4.29 ± 0.66 | 1.83 | 8.02 | 8.71 ± 1.1 |  | 10.5 ± 0.21 |  | 5.6 ± 1
MDQIRLTHLRQLEAESIHIIREVAAEFSNPVMLYSIGKDSSVMLHLARKAFYPGTLPFPLLHVDTGWKFREMYEFRDRTAKAYGCELLVHKNPEGVAMGINPFVHGSAKHTDIMKTEGLKQALNKYGFDAAFGGARRDEEKSRAKERIYSFRDRFHRWDPKNQRPELWHNYNGQINKGESIRVFPLSNWTEQDIWQYIWLENIDIVPLYLAAERPVLERDGMLMMIDDNRIDLQPGEVIKKRMVRFRTLGCWPLTGAVESNAQTLPEIIEEMLVSTTSERQGRVIDRDQAGSMELKKRQGYF | 5.8 ± 1.9 | 3.7 ± 0.045 | 1.49 ± 0.57 | 1.35 ± 0.17 | 1.29 ± 0.12 | 1.58 ± 0.062 | 2.88 ± 0.15 | 1.44 ± 0.29 | 1.46 ± 0.23 | 2.57 ± 0.54 | 1.94 ± 0.21 | 1.206 ± 0.0024
MDQKQIEEIVRSVMASMGQAAPAPSEAKCATTNCAAPVTSESCALDLGSAEAKAWIGVENPHRADVLTELRRSTVARVCTGRAGPRPRTQALLRFLADHSRSKDTVLKEVPEEWVKAQGLLEVRSEISDKNLYLTRPDMGRRLCAEAVEALKAQCVANPDVQVVISDGLSTDAITVNYEEILPPLMAGLKQAGLKVGTPFFVRYGRVKIEDQIGEILGAKVVILLVGERPGLGQSESLSCYAVYSPRMATTVEADRTCISNIHQGGTPPVEAAAVIVDLAKRMLEQKASGINMTR | 5.05 ± 0.91 | 3.65 ± 0.13 | 3.19 ± 0.053 | 4.21 ± 0.95 | 3.11 ± 0.17 | 2.6 ± 0.1 | 8.48 ± 0.82 | 4.31 ± 0.15 | 4.69 ± 0.096 | 9.58 ± 0.56 | 5.43 ± 0.85 | 3.41 ± 0.32
MDRDQTNSSLFNDDPVLHATWLYYQEGKSQTEVAAIMGVSRVTVVKYLQTARENGLVHINLDVNVFGSIDAALQIRDKFNLQRVIIVPDGEHAGKRDDTKLMRTRLSRAGGMYLNQVIENGDVLGVAWGRTIHQMSKTMTPKSCKNVTVIQMLGSMPSQPDLTIIESSSQIAYKLSGRVASLHVPAVVSSARLAMELQAEPIIRSNFDVLTRCTKAFFVVGNALDENPLIRVGVLNKKEMQTYRDLGAVGVICGRFYDKEGMPVVADVDQRILGISLAQLRQIERKIFLAGGERGYDATLGALLGGYVTDLIVDEGTAEFLLACELPH | 7.27 ± 0.75 | 6.31 ± 0.21 | 6.85 ± 0.93 | 6.37 ± 0.93 | 5.92 ± 0.29 | 3.03 ± 0.26 | 11.5 ± 2.3 | 11.9 ± 0.26 | 5.93 ± 0.12 | 12 ± 0.53 | 6.27 ± 0.17 | 5.82 ± 0.46
